Patent US20250101087A1 (AbbVie / Abbott, published 2025)
Square brackets hold non-standard residues; d marks the D form. Primed or numbered codes have the meaning given here. Ends that are not written are not given here. pGlu = O=C1CC[C@@H](C(=O)O)N1; Biotin′ = not defined here

T1: Mouse/Rat Aβ 1-40 (mouse/rat)
T1 construct: also called Aβ1-40 from rat and mouse
T1 peptide: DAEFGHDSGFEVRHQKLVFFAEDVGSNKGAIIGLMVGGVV

T2: E3-16-EFRHDSGYEVHHQK-Biotin (human)
T2 construct: N-terminal glutamate is not pyroglutamated
T2 peptide: EFRHDSGYEVHHQK-{Biotin′}

T3: pEG6 Pyr …-Biotin (human)
T3 peptide: [pGlu]FRGDSGYEVHHQK-{Biotin′}

T4: pEG7 Pyr …-Biotin (human)
T4 peptide: [pGlu]FRHGSGYEVHHQK-{Biotin′}

T5: pEG8 Pyr …-Biotin (human)
T5 peptide: [pGlu]FRHDGGYEVHHQK-{Biotin′}

T6: pEF10 Pyr …-Biotin (human)
T6 peptide: [pGlu]FRHDSGGEVHHQK-{Biotin′}

T7: pE3-16 Pyr-…-Biotin (human)
T7 peptide: [pGlu]FRHDSGYEVHHQK-{Biotin′}


What was measured:
human Aβ 1-40 fibrils = human Aβ 1-40 fibrils (human); assay: direct binding ELISA
Mouse/Rat Aβ 1-40 = biological target: T1, Mouse/Rat Aβ 1-40; assay: direct binding ELISA
[1] = biological target: T2, E3-16-EFRHDSGYEVHHQK-Biotin; assay: direct binding ELISA, peptide coated 100 ng/well, average ± SD of three experiments
Procedure: (§1) Recombinant human Aβ biotinylated peptides were diluted in distilled water. Aβ peptides were diluted to a working concentration of 2 μg/mL, and 50 μL per well (100 ng/well) was added to 96-well half area high-binding ELISA plates. The plates were incubated overnight at 4° C. shaking at 100 rpm. Following coating, the plates were washed four times with 190 µL/well of 1×PBS using an automated plate washer. The plates were blocked with 190 µL/well of 2% BSA in DPBS and incubated for 1 hr. at RT. Reagents for ELISA were diluted in 0.25% BSA in DPBS.
(§2) After incubation for blocking, plates were washed four times with 190 μL/well of 1×PBS using automated plate washer. […] The plates were incubated for 30 min at RT. After four washes with PBS, 50 μL of TMB substrate was added into each well, and the plates were incubated at RT for about 5-10 min until color developed. The reaction was stopped by adding 50 μL per well of 2N sulfuric acid. Plates were read on a ClarioStar plate reader to obtain the absorbance at 450 nm (OD₄₅₀). […] Three independent experiments were performed.

pEG6 Pyr …-Biotin = biological target: T3, pEG6 Pyr …-Biotin; assay: as above
Procedure: as §1, §2

pEG7 Pyr …-Biotin = biological target: T4, pEG7 Pyr …-Biotin; assay: as above
Procedure: as §1, §2

pEG8 Pyr …-Biotin = biological target: T5, pEG8 Pyr …-Biotin; assay: as above
Procedure: as §1, §2

pEF10 Pyr …-Biotin = biological target: T6, pEF10 Pyr …-Biotin; assay: as above
Procedure: as §1, §2

pE3-16 Pyr-…-Biotin = biological target: T7, pE3-16 Pyr-…-Biotin; assay: as above
Procedure: as §1, §2

[2] = biological target: T8, amyloid plaques in human AD brain tissue (human, UniProt P05067 674-713); assay: immunostaining of unfixed human AD cortex sections with biotinylated antibody, % area covered, 6 donors fitted together
T8 construct: Target presented in tissue sections; also called plaques in AD brain tissue
T8 sequence (P05067 674-713): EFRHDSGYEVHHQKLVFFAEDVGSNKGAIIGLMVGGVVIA
Procedure: Unfixed, 20 μm tissue sections were prepared from cerebral cortex of human cadaver AD brain using a cryostat and were thaw-mounted onto glass slides. The tissue sections were then incubated in Tris-buffered saline (TBS) containing 0.3% H₂O₂ for 10 minutes. After three washes with TBS, the sections were incubated in TBS containing 3% milk for 30 minutes. […] After three washes with TBS, the immunoreactivity was visualized by incubation in 1:400 ABC Elite for one hour followed by DAB for five minutes.
The images were acquired from all the samples using a slide scanner. […] Using the software, the gray matter was outlined, and the “threshold” was determined by an observer who was blind to the staining conditions. The threshold was set so that the DAB signal was recognized by the software and the background/non-specific staining was excluded from the analysis. Once an appropriate threshold was set, the software measured the percentage of the area of interest containing the positive signal.
A nonlinear regression analysis was carried out using Prism Version 9.1.0 (Graph Pad Software). A variable slope model, 9% area covered by IR=Bottom+(X^{HillSlope})*(Top−Bottom)/(X^{HillSlope}+EC₅₀^{HillSlope}), was used, where Bottom was fixed to zero, and Top was fixed to 10% as the typical total area covered by plaques. Data for all six donors were analyzed in a combined data fit.

[3] = biological target: T8, amyloid plaques in human AD brain tissue; assay: immunostaining of unfixed human AD cortex sections, % area covered, 6 donors fitted together

Binder | binding result (human Aβ 1-40 fibrils) | binding result (Mouse/Rat Aβ 1-40) | EC50 [1] [nM] | EC50 (pEG6 Pyr …-Biotin) [nM] | EC50 (pEG7 Pyr …-Biotin) [nM] | EC50 (pEG8 Pyr …-Biotin) [nM] | EC50 (pEF10 Pyr …-Biotin) [nM] | EC50 (pE3-16 Pyr-…-Biotin) [nM] | EC50 [2] [µg/mL] | EC50 [3] [µg/mL]
AC-264713, hu Aβ (AC-264713) [hu IgG1/K] (antibody, V domains shown, It is the only humanized antibody described) VH: EVQLQESGPGLVKPSQTLSLTCTFSGFSLSTSGMGVSWIRQPPGKGLEWLAHIYWDDDKRYNPYMKRRLTISKDTSKNQVSLKISSVTAADTAVYYCARRADDYDVGFAYWGQGTLVTVSS VL: DIQMTQSPSSVSASVGDRVTITCLASQTIGTWLAWYQQKPGKSPKLLIYAATSLADGVPSRFSGSGSGTDFTLTISSLQPEDFATYYCQQLYSSPFTFGQGTKLEIKR | no binding | no binding | 0.9 | 0.5 | 0.4 | 0.4 | 0.5 | 0.3 | 0.4 | 
Comparator Ab1 (antibody, human IgG1, kappa, V domains shown, Detected with anti-human IgG in the in vivo study; also called comparator antibody Ab1) VH: QVQLVQSGAEVKKPGSSVKVSCKASGYDFTRYYINWVRQAPGQGLEWMGWINPGSGNTKYNEKFKGRVTITADESTSTAYMELSSLRSEDTAVYYCAREGITVYWGQGTTVTVSS VL: DIVMTQTPLSLSVTPGQPASISCKSSQSLLYSRGKTYLNWLLQKPGQSPQLLIYAVSKLDSGVPDRFSGSGSGTDFTLKISRVEAEDVGVYYCVQGTHYPFTFGQGTKLEIKR |  |  |  |  |  |  |  |  |  | 12
